Assay results from article PMC8866485, “Cell surface nucleolin is a novel ADAMTS5 receptor mediating endothelial cell apoptosis” (Cell Death & Disease, 2022).

Columns and labels:
[1] = biological target: T1, Recombinant human NCL (FLAG-tagged, full length) (human, UniProt P19338 1-710); experiment: SPR; Biacore T200, CM5 chip; recombinant NCL captured by amine-coupled anti-NCL antibody; TS5-p45 as analyte, five dilutions, single-cycle kinetics; 25 C; HBST (10 mM HEPES, 150 mM NaCl, 50 uM EDTA, pH 7.4, 0.05% Tween-20); 1:1 model; conditions: both partners purified
T1 construct: Nucleolin (NCL), human, full length; also called rhNCL; recombinant NCL; source: bought: OriGene (TP319082)

[2] = biological target: T2, FLAG-tagged full-length NCL (NCL-FL 1-710) (UniProt P19338 1-710); experiment: ELISA; saturation binding: FLAG-NCL-FL from HEK293T whole cell lysate captured on anti-FLAG antibody-coated plate; TS5-p45 titrated, 4 C overnight; anti-His detection; conditions: one partner purified
T2 construct: Nucleolin (NCL), residues 1-710, in pCMV-Tag2; the length of 710 residues fits human nucleolin; source: HEK293T, transiently transfected, in whole cell lysate; not shown: FLAG, N-terminal, kept
T2 sequence (P19338 whole entry, the tested form may be a part): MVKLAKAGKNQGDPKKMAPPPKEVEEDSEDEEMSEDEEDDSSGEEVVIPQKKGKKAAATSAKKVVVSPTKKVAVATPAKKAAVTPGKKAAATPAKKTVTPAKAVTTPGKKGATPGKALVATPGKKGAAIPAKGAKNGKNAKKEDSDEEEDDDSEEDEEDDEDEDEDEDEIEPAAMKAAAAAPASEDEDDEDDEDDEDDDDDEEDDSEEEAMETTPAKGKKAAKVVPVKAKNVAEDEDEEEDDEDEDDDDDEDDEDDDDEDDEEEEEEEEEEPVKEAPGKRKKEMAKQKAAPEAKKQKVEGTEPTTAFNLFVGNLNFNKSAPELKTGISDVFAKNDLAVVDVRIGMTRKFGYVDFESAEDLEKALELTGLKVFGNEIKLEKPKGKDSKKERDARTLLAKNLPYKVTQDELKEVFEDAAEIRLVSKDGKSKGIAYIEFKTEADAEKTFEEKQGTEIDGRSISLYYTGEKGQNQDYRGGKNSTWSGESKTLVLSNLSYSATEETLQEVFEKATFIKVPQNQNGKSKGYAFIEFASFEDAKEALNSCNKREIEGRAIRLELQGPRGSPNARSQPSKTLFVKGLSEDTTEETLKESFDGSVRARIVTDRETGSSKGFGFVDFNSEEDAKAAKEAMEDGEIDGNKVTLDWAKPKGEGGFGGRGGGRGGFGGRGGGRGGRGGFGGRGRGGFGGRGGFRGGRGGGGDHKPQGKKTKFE

T1 sequence (P19338 whole entry): as the sequence (P19338 whole entry, the tested form may be a part) above

B1: Recombinant human TS5-p45 (C-terminal His-tagged, Ser262-Pro622 truncate of ADAMTS5) (domain or fragment, UniProt Q9UNA0 262-622, looked up)
chain: SISRARQVELLLVADASMARLYGRGLQHYLLTLASIANRLYSHASIENHIRLAVVKVVVLGDKDKSLEVSKNAATTLKNFCKWQHQHNQLGDDHEEHYDAAILFTREDLCGHHSCDTLGMADVGTICSPERSCAVIEDDGLHAAFTVAHEIGHLLGLSHDDSKFCEETFGSTEDKRLMSSILTSIDASKPWSKCTSATITEFLDDGHGNCLLDLPRKQILGPEELPGQTYDATQQCNLTFGPEYSVCPGMDVCARLWCAVVRQGQMVCLTKKLPAVEGTPCGKGRICLQGKCVDKTKKKYYSTSSHGNWGSWGSWGQCSRSCGGGVQFAYRHCNNPAPRNNGRYCTGKRAIYRSCSLMPCP
notes: ADAMTS5 (A Disintegrin and Metalloproteinase with Thrombospondin Motifs 5, aggrecanase-2), human, residues Ser262-Pro622; also called 45 kDa truncate of ADAMTS5; source: bought: R&D Systems (2198-AD-01M); not shown: His tag, C-terminal, kept
For B1, the Kd [1] was ~28 nM and the Kd [2] was ~26 nM.
